Results published in article PMC3072279 (Biochemistry, 2011).

Molecular target: the molecule itself
Experiment: SEC-MALS

B1: DCAF1 817–1507, C-terminally His6-tagged (domain or fragment)
chain: not shown
stoichiometry N: 2
